We go through four molecules from paper PMC9482650, “Quantitative fragmentomics allow affinity mapping of interactomes” (Nature Communications, 2022).

Common to all, as to experiment: holdup assay
Design in all cases: key: below the threshold = too weak to quantify, mostly under pKd 3.1 to 4

The target in assay [1] is T1, CARD11, Q9BXL7.
T1 sequence (Q9BXL7 662-765, limits assumed, looked up): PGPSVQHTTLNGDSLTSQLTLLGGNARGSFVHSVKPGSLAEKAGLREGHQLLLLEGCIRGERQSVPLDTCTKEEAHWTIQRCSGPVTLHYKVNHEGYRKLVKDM

Assay [2] deals with T2, NHERF3_4, Q5T2W1.
T2 sequence (Q5T2W1 373-468, limits assumed, looked up): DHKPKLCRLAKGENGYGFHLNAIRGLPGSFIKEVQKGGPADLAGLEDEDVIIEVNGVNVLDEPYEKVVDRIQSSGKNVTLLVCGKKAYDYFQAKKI

In assay [3] the target is T3, TX1BP3, O14907.
T3 sequence (O14907 10-122, limits assumed, looked up): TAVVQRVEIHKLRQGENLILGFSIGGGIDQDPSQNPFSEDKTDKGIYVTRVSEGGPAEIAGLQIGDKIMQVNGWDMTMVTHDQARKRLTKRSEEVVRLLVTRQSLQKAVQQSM

For assay [4], the target named is FRMPD2_1, Q68DX3.
FRMPD2_1, Q68DX3, sequence (Q68DX3 770-861): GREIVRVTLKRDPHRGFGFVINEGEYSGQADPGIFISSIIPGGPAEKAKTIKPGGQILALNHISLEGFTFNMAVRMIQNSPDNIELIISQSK
In assay [5] the target is T4, DFNB31_2, Q9P202.
T4 sequence (Q9P202 274-371, limits assumed, looked up): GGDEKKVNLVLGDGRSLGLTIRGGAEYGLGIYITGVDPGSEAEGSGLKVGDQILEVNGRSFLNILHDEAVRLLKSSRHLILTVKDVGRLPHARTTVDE

Assay [6] addresses T5, APBA2_2, Q99767.
T5 sequence (Q99767 654-744, limits assumed, looked up): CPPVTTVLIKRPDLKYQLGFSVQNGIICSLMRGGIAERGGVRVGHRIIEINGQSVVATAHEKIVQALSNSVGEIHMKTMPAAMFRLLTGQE

Assay [7] has as its target Inadl_3, Q8NI35.
The target of assay [8] is LAP2, Q96RT1.
LAP2, Q96RT1, sequence (Q96RT1 other isoform, or with tags, fused parts or gaps): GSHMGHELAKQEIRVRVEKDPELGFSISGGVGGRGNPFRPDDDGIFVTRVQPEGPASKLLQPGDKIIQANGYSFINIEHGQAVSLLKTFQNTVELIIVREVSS
The target of assay [9] is NHERF4_4, Q86UT5.
NHERF4_4, Q86UT5, sequence (Q86UT5 464-550): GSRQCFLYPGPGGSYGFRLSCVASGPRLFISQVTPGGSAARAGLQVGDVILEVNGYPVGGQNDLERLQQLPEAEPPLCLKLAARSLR
Assay [10] addresses T6, SHANK1, Q9Y566.
T6 sequence (Q9Y566 658-767, limits assumed, looked up): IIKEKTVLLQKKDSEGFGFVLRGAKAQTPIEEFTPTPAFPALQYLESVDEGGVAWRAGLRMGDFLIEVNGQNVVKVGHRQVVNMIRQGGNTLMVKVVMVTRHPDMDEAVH

Assay [11] deals with T7, APBA1_2, Q02410.
T7 sequence (Q02410 742-832, limits assumed, looked up): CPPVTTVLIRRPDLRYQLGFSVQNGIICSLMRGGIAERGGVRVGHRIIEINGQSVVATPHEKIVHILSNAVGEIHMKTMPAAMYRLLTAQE

Assay [12] deals with NHERF4_2, Q86UT5.
NHERF4_2, Q86UT5, sequence (Q86UT5 220-308): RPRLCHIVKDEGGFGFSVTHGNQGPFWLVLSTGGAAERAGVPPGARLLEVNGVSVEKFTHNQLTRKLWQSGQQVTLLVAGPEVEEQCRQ
In assay [13] the target is LNX1_3, Q8TBB1.
LNX1_3, Q8TBB1, sequence (Q8TBB1 500-596): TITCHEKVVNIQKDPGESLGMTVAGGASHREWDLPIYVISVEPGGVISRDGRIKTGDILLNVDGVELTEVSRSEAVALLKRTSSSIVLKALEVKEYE
Assay [14] addresses T8, MPP6, Q9NZW5.
T8 sequence (Q9NZW5 125-219, limits assumed, looked up): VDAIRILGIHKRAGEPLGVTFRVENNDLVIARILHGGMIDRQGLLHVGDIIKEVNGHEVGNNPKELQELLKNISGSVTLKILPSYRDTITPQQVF

The target of assay [15] is T9, LNX2_3, Q8N448.
T9 sequence (Q8N448 463-564, limits assumed, looked up): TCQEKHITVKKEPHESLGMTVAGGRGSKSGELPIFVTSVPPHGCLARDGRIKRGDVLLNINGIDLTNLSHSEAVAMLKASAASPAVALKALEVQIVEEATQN

Assay [16] has as its target T10, PDZD2_2, O15018.
T10 sequence (O15018 329-429, limits assumed, looked up): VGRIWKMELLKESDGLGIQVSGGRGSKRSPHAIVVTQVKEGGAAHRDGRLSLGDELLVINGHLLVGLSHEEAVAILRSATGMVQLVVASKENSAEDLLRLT

The target of assay [17] is T11, FRMPD1, Q5SYB0.
T11 sequence (Q5SYB0 52-145, limits assumed, looked up): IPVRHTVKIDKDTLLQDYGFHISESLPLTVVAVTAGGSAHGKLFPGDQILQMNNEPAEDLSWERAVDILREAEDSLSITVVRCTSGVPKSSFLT

The target in assay [18] is T12, NHERF3_3, Q5T2W1.
T12 sequence (Q5T2W1 238-333, limits assumed, looked up): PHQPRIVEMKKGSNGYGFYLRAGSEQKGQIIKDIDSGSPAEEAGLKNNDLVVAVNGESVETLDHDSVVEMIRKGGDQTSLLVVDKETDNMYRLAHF

For assay [19], the target named is T13, MPP7, Q5T2T1.
T13 sequence (Q5T2T1 134-230, limits assumed, looked up): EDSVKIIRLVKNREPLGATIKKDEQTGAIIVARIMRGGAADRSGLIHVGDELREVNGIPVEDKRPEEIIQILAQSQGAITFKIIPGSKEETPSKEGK

Assay [20] has as its target IL16_1, Q14005.
In assay [21] the target is LIMK2, P53671.
LIMK2, P53671, sequence (P53671 143-248): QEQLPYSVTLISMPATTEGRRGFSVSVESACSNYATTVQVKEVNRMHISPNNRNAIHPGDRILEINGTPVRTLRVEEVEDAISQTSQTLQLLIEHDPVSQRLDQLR
The target of assay [22] is T14, MPDZ_10, O75970.
T14 sequence (O75970 1624-1722, limits assumed, looked up): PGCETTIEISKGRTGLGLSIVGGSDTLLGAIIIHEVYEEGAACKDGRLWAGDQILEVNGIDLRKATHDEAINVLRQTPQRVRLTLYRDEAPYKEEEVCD

The target in assay [23] is DLG4_2, P78352.
DLG4_2, P78352, sequence (P78352 155-259): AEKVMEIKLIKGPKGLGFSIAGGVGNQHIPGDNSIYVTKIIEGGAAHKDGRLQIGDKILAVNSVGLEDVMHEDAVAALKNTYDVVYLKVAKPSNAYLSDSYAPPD
The mark [24] stands for this setting: plain residues with an end cap or a label only (N-terminal biotin on a linker: ttds).
The mark [25] stands for this setting: plain residues with an end cap or a label only (N-terminal biotin on a linker: ahx).
The mark [26] stands for this setting: plain residues with an end cap or a label only (N-terminal biotin on a linker: ado-ado).

IL16_1, Q14005, sequence (Q14005 210-306): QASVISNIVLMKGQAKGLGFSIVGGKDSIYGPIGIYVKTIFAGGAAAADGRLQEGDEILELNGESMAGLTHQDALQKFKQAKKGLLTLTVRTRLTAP
Inadl_3, Q8NI35, sequence (Q8NI35 359-469): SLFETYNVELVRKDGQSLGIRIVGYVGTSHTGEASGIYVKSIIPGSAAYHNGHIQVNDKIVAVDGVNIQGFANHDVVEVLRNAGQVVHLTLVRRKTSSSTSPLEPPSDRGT

On to EVVHTPETSV [SLC16A3, O15427], for which the pKd result was “below the threshold” in assay [1] (setting [24]); “below the threshold” in assay [2] (setting [24]); 3.84 in [3] (setting [24]); “below the threshold” in assay [4] (setting [24]); “below the threshold” in assay [5] (setting [24]); “below the threshold” in assay [6] (setting [24]). Moreover, the negative logarithm of the Kd (pKd) result is “below the threshold” in assay [7] (setting [24]); 3.81 in assay [8] (setting [24]); “below the threshold” in [9] (setting [24]); “below the threshold” in assay [10] (setting [24]); 4.09 in [11] (setting [24]); “below the threshold” in assay [12] (setting [24]). Also, the pKd result is “below the threshold” in [13] (setting [24]); “below the threshold” in [14] (setting [24]); “below the threshold” in assay [15] (setting [24]); 4.26 in [16] (setting [24]); “below the threshold” in [17] (setting [24]); “below the threshold” in [18] (setting [24]). The pKd entry is “below the threshold” in assay [19] (setting [24]); 3.6 in assay [20] (setting [24]); “below the threshold” in assay [21] (setting [24]); “below the threshold” in assay [22] (setting [24]); 4.2 in assay [23] (setting [24]).

As for NRKREIFSNF [NHERF2, Q15599], the pKd entry in assay [1] (setting [25]), in [2] (setting [25]), in assay [3] (setting [25]), in [4] (setting [25]), in [5] (setting [25]) and in assay [6] (setting [25]) was “below the threshold” throughout. Also, the pKd entry in assay [7] (setting [25]), in assay [8] (setting [25]), in assay [9] (setting [25]), in assay [10] (setting [25]), in assay [11] (setting [25]) and in assay [12] (setting [25]) was “below the threshold” throughout. Further, the pKd result in assay [13] (setting [25]), in assay [14] (setting [25]), in [15] (setting [25]), in assay [16] (setting [25]), in [17] (setting [25]) and in assay [18] (setting [25]) was “below the threshold” in each case. The pKd entry in assay [19] (setting [25]), in [20] (setting [25]), in [21] (setting [25]), in assay [22] (setting [25]) and in [23] (setting [25]) was “below the threshold” throughout.

Consider HNAFLSVTTV [PDZRN4, Q6ZMN7], for which the pKd entry in assay [1] (setting [25]) is “below the threshold”; in [2] (setting [25]), 3.61; in assay [3] (setting [25]) it was “below the threshold”; in assay [4] (setting [25]) it was “below the threshold”; in assay [5] (setting [25]) it was “below the threshold”; in [6] (setting [25]), “below the threshold”. Also, the pKd in assay [7] (setting [25]) is 3.66; in assay [8] (setting [25]), “below the threshold”; in assay [9] (setting [25]), “below the threshold”; in [10] (setting [25]) it was “below the threshold”; in assay [11] (setting [25]), “below the threshold”; in assay [12] (setting [25]) it was “below the threshold”. The negative logarithm of the Kd (pKd) entry in assay [13] (setting [25]) was “below the threshold”; in [14] (setting [25]) it was 3.5; in assay [15] (setting [25]), “below the threshold”; in [16] (setting [25]) it was 3.49; in assay [17] (setting [25]), “below the threshold”; in assay [18] (setting [25]), “below the threshold”. Further, the pKd entry was “below the threshold” in assay [19] (setting [25]); “below the threshold” in [20] (setting [25]); “below the threshold” in assay [21] (setting [25]); 3.75 in assay [22] (setting [25]); 3.51 in assay [23] (setting [25]).

Turning to PLSPEQPTKL [TRIM50, Q86XT4], the pKd entry in [1] (setting [26]) was “below the threshold”; in [2] (setting [26]), 3.7; in [3] (setting [26]), “below the threshold”; in [4] (setting [26]), “below the threshold”; in assay [5] (setting [26]), “below the threshold”; in assay [6] (setting [26]), “below the threshold”. The pKd result in [7] (setting [26]) was “below the threshold”; in [8] (setting [26]), “below the threshold”; in [9] (setting [26]), “below the threshold”; in assay [10] (setting [26]), “below the threshold”; in assay [11] (setting [26]), 4.06; in assay [12] (setting [26]) it was “below the threshold”. For the same molecule, the pKd result in [13] (setting [26]) was “below the threshold”; in assay [14] (setting [26]), 3.63; in [15] (setting [26]) it was “below the threshold”; in [16] (setting [26]), “below the threshold”; in assay [17] (setting [26]), “below the threshold”; in assay [18] (setting [26]), “below the threshold”. Also, the pKd result in [19] (setting [26]), in [20] (setting [26]), in [21] (setting [26]), in [22] (setting [26]) and in assay [23] (setting [26]) was “below the threshold” throughout.

A word on the pKd: it is the negative decadic logarithm of the Kd, by convention in mol/L.
